From patent publication US20250326792A1, “A FORMULATION FOR TREATMENT OF PIGMENTARY DISORDERS” (priority 2022, published 2025)
PHPP = 3-Phenylpyrazolo[3,4-d]pyrimidine (N-terminal cap)

Columns and labels:
[1] = Solubility of synthetic peptide IS103; format: physicochemical
[2] = Stability of IS103 API, accelerated (Condition 1, 5±3° C.); format: physicochemical
Procedure: The purpose of stability testing is to provide evidence on how the quality of a drug substance or drug product varies with time under the influence of a variety of environmental factors such as temperature, humidity, etc. and to establish a re-test period for the drug substance or a shelf life for the drug product and recommended storage conditions. The study was conducted according to the WHO and schedule-Y guidelines.
The IS103 API is a lyophilized white fluffy powder, and it was filled at sterile condition in glass injection vial which has airlock-rubber capping. This container closure system is same as or simulates the packaging proposed for storage and distribution.
The following test attributes have been selected according to the above said guidelines: • appearance; odour; colour; colour of solution (when IS103 API is soluble in solvent); clarity of solution; degradation and assessment of container closure system.
The studies were conducted under appropriate storage conditions (with appropriate tolerances) that test IS103 API thermal stability and its sensitivity to moisture. The IS103 API is intended for storage for 36 months. Accordingly, long term stability studies were done for 36 months. The details of the storage conditions have been furnished hereunder.

NHEM cells = experiment: Melanin content assay in NHEM cells; format: cell-based, Human; conditions: for % increase in melanin content compared to control / Fold change in melanin content: NHEM CELLS
Procedure: Culture and maintenance of cell lines: B16F10 cells were cultured in RPMI containing 10% fetal bovine serum, 100 units per millilitre (U/mL) penicillin, 0.1 mg/mL streptomycin, and 0.25 microgram per millilitre (μg/mL) amphotericin B at 37 degrees Celsius in a humidified 95% air/5% CO2 incubator. Drug treatment was done 24 hours after seeding. Cells were harvested 48 hours later and melanin content and tyrosinase activity determined in triplicate. NHEM cells were cultured in DMEM containing 10% fetal bovine serum, 100 units per milliliter (U/mL) penicillin, 0.1 mg/mL streptomycin, and 0.25 microgram per millilitre (μg/mL) amphotericin B at 37 degrees Celsius in a humidified 95% air/5% CO2 incubator. Drug treatment was done 24 hours after seeding. Cells were harvested 48 hours later and melanin content and tyrosinase activity determined in triplicate.
IS103 was dissolved in water for injection or DMSO to prepare stock solution of about 50 mg/ml. The stock solution was used for preparation of subsequent dilutions in solvent to achieve working dilutions for treatment ranging 0.1 μg/ml to 1000 μg/ml.
Cells were seeded in a 6-well plate (2×10^4 cells/well) and incubated overnight to allow the cells to adhere. After treating with various test samples for 4 or 5 days, cells were washed with phosphate-buffered saline (PBS), trypsinized, counted, and then lysed in 1 N NaOH at 100° C. for about 1 hour. The melanin content in each sample was calculated by comparison of absorbance at 400 nm of unknown samples with a standard curve obtained using synthetic melanin. IS103 enhances melanin synthesis in a dose dependent manner without significant toxicity. B16F10 and NHEM cells were treated with different concentrations of IS103 ranging from 0.1 to 1000 μg/ml and analysed melanin contents in cells. It was observed that IS103 was able to enhance pigmentation of B16F10 and NHEM cells in a dose-dependent manner (Table 18 and FIGS. 4 and 5). […] To assess the toxicity of the IS103 peptide, cell viability was analyzed by MTT assay.

In the case of “PHPP-Tyr-Arg-Ser-Arg-Lys-Tyr-Ser-Ser-Trp-Tyr-NH2 ({PHPP}-YRSRKYSSWY-NH2) [IS103]”, the Solubility [1] is reported as “soluble in water”, the “API calculated on the anhydrous basis” value ([2]; 5±3° C., 1 M) is reported as 99.68% and the “Appearance white to off white amorphous powder” value (from here on “Appearance white”) ([2]; 5±3° C., 1 M) is reported as “White”. For the same substance, the “Related substances (By HPLC) Any Max Impurity” value ([2]; 5±3° C., 1 M) was 0.35%, the “Related substances (By HPLC) Total Impurity” value ([2]; 5±3° C., 1 M) was 2.23% and the “Solubility Sparingly soluble in water” value ([2]; 5±3° C., 1 M) was “Complies”. For the same substance, the “Water Content (By Karl Fischer-Titrator)” value ([2]; 5±3° C., 1 M) was 4.27% w/w, the “Internal change in attributes: Appearance” value (from here on “Internal change … Appearance”) ([2]; 5±3° C., 1st month) was “No change” and the “Internal change in attributes: Clarity of solution” value ([2]; 5±3° C., 1st month) was “No change”. For the same substance, the “Internal change in attributes: Color” value ([2]; 5±3° C., 1st month) was “No change”, the “Internal change in attributes: Color of solution” value ([2]; 5±3° C., 1st month) was “No change” and the “Internal change in attributes: Odor” value ([2]; 5±3° C., 1st month) was “No change”. The “Internal change … Appearance” value ([2]; 5±3° C., 2nd month) was “No change”, the “Internal change in attributes: Clarity of solution” value ([2]; 5±3° C., 2nd month) was “No change” and the “Internal change in attributes: Color” value ([2]; 5±3° C., 2nd month) was “No change”. For the same substance, the “Internal change in attributes: Color of solution” value ([2]; 5±3° C., 2nd month) was “No change”, the “Internal change in attributes: Odor” value ([2]; 5±3° C., 2nd month) was “No change” and the “API calculated on the anhydrous basis” value ([2]; 5±3° C., 3 M) was 99.14%. For the same substance, the “Appearance white” value ([2]; 5±3° C., 3 M) was “White”, the “Related substances (By HPLC) Any Max Impurity” value ([2]; 5±3° C., 3 M) was 0.40% and the “Related substances (By HPLC) Total Impurity” value ([2]; 5±3° C., 3 M) was 2.30%. For the same substance, the “Solubility Sparingly soluble in water” value ([2]; 5±3° C., 3 M) was “Complies”, the “Water Content (By Karl Fischer-Titrator)” value ([2]; 5±3° C., 3 M) was 4.29% w/w and the “Internal change … Appearance” value ([2]; 5±3° C., 3rd month) was “No change”. For the same substance, the “Internal change in attributes: Clarity of solution” value ([2]; 5±3° C., 3rd month) was “No change”, the “Internal change in attributes: Color” value ([2]; 5±3° C., 3rd month) was “No change” and the “Internal change in attributes: Color of solution” value ([2]; 5±3° C., 3rd month) was “No change”. For the same substance, the “Internal change in attributes: Odor” value ([2]; 5±3° C., 3rd month) was “No change”, the “API calculated on the anhydrous basis” value ([2]; 5±3° C., 6 M) was 99.00% and the “Appearance white” value ([2]; 5±3° C., 6 M) was “White”. For the same substance, the “Related substances (By HPLC) Any Max Impurity” value ([2]; 5±3° C., 6 M) was 0.49%, the “Related substances (By HPLC) Total Impurity” value ([2]; 5±3° C., 6 M) was 2.44% and the “Solubility Sparingly soluble in water” value ([2]; 5±3° C., 6 M) was “Complies”. The “Water Content (By Karl Fischer-Titrator)” value ([2]; 5±3° C., 6 M) was 4.87% w/w, the “Internal change … Appearance” value ([2]; 5±3° C., 6th month) was “No change” and the “Internal change in attributes: Clarity of solution” value ([2]; 5±3° C., 6th month) was “No change”. For the same substance, the “Internal change in attributes: Color” value ([2]; 5±3° C., 6th month) was “No change”, the “Internal change in attributes: Color of solution” value ([2]; 5±3° C., 6th month) was “No change” and the “Internal change in attributes: Odor” value ([2]; 5±3° C., 6th month) was “No change”. For the same substance, the “API calculated on the anhydrous basis” value ([2]; 5±3° C., Initial) was 99.73%, the “Appearance white” value ([2]; 5±3° C., Initial) was “White” and the “Related substances (By HPLC) Any Max Impurity” value ([2]; 5±3° C., Initial) was 0.39%. The “Related substances (By HPLC) Total Impurity” value ([2]; 5±3° C., Initial) was 2.09%, the “Solubility Sparingly soluble in water” value ([2]; 5±3° C., Initial) was “Complies” and the “Water Content (By Karl Fischer-Titrator)” value ([2]; 5±3° C., Initial) was 4.18% w/w. The “found to be stable for” value ([2]; accelerated condition, 5±3° C.) was 6 months, the “stable for” value ([2]; refrigerator (5±3° C.) conditions) was 36 months and the “% increase in melanin content compared to control” value (“% increase in melanin content” for short) (NHEM cells; 0.1 μg/mL) was 0%. For the same substance, the “Fold change in melanin content” value (NHEM cells; 0.1 μg/mL) was 1.0 ± 0.20, the “% increase in melanin content” value (NHEM cells; 1 μg/mL) was 0% and the “Fold change in melanin content” value (NHEM cells; 1 μg/mL) was 1.0 ± 0.20. For the same substance, the “% increase in melanin content” value (NHEM cells; 10 μg/mL) was 0%, the “Fold change in melanin content” value (NHEM cells; 10 μg/mL) was 1.0 ± 0.20 and the “% increase in melanin content” value (NHEM cells; 50 μg/mL) was 40%. For the same substance, the “Fold change in melanin content” value (NHEM cells; 50 μg/mL) was 1.4 ± 0.20, the “% increase in melanin content” value (NHEM cells; 100 μg/mL) was 130% and the “Fold change in melanin content” value (NHEM cells; 100 μg/mL) was 2.3 ± 0.20. The “% increase in melanin content” value (NHEM cells; 250 μg/mL) was 160%, the “Fold change in melanin content” value (NHEM cells; 250 μg/mL) was 2.6 ± 0.20 and the “% increase in melanin content” value (NHEM cells; 500 μg/mL) was 180%. For the same substance, the “Fold change in melanin content” value (NHEM cells; 500 μg/mL) was 2.8 ± 0.20, the “% increase in melanin content” value (NHEM cells; 1000 μg/mL) was 165% and the “Fold change in melanin content” value (NHEM cells; 1000 μg/mL) was 2.7 ± 0.20. For the same substance, the “effect on melanin synthesis (FIG. 5)” value (NHEM cells; NHEM cells, different concentrations, about 48 hours) was “enhanced melanin synthesis in a dose-dependent manner”.
